Laboratory results published in patent US20240376208A1 (AFFIMED, published 2024).

T1: His-tagged human BCMA extracellular domain (human, UniProt Q02223 1-54)
T1 construct: extracellular domain; Coated at 0.4 ug/mL to capture the BCMA-targeting constructs; not shown: His tag
T1 sequence (looked up): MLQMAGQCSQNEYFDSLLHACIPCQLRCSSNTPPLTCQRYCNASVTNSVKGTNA

B1: scFv-IgAb_18 (bispecific antibody)
heavy: EVQLLESGGGLVQPGGSLRLSCAASGFTFSNYDMAWVRQAPGKGLEWVSSISTRGDITSYRDSVKGRFTISRDNSKNTLYLQMNSLRAEDTAVYYCARQDYYTDYMGFAYWGQGTLVTVSSASTKGPSVFPLAPSSKSTSGGTAALGCLVKDYFPEPVTVSWNSGALTSGVHTFPAVLQSSGLYSLSSVVTVPSSSLGTQTYICNVNHKPSNTKVDKKVEPKSCDKTHTCPPCPAPEFEGGPSVFLFPPKPKDTLMISRTPEVTCVVVAVSHEDPEVKFNWYVDGVEVHNAKTKPREEQYNSTYRVVSVLTVLHQDWLNGKEYKCKVSNKALPAPIEKTISKAKGQPREPQVYTLPPSREEMTKNQVSLTCLVKGFYPSDIAVEWESNGQPENNYKTTPPVLDSDGSFFLYSKLTVDKSRWQQGNVFSCSVMHEALHNHYTQKSLSLSPGGGGGSGGGGSGGGGSGGGGSGGGGSGGGGSSYVLTQPSSVSVAPGQTATISCGGHNIGSKNVHWYQQRPGQSPVLVIYQDNKRPSGIPERFSGSNSGNTATLTISGTQAMDEADYYCQVWDNYSVLFGGGTKLTVLGGSGGSGGSGGSGGSGGSGGSQVQLVQSGAEVKKPGESLKVSCKASGYTFTSYYMHWVRQAPGQGLEWMGAIEPMYGSTSYAQKFQGRVTMTRDTSTSTVYMELSSLRSEDTAVYYCARGSAYYYDFADYWGQGTLVTVSS
light: AIQMTQSPSSLSASVGDRVTITCRASEDIYNGLAWYQQKPGKAPKLLIYGASSLQDGVPSRFSGSGSGTEFTLTISSLQPEDEATYYCAGPHKYPLTFGGGTKVEIKRTVAAPSVFIFPPSDEQLKSGTASVVCLLNNFYPREAKVQWKVDNALQSGNSQESVTEQDSKDSTYSLSSTLTLSKADYEKHKVYACEVTHQGLSSPVTKSFNRGEC
B2: scFv-IgAb_47 (bispecific antibody)
heavy: QVQLVQSGAEVKKPGESLKVSCKASGYTFTSYYMHWVRQAPGQGLEWMGAIEPMYGSTSYAQKFQGRVTMTRDTSTSTVYMELSSLRSEDTAVYYCARGSAYYYDFADYWGQGTLVTVSSASTKGPSVFPLAPSSKSTSGGTAALGCLVKDYFPEPVTVSWNSGALTSGVHTFPAVLQSSGLYSLSSVVTVPSSSLGTQTYICNVNHKPSNTKVDKKVEPKSCDKTHTCPPCPAPEFEGGPSVFLFPPKPKDTLMISRTPEVTCVVVAVSHEDPEVKFNWYVDGVEVHNAKTKPREEQYNSTYRVVSVLTVLHQDWLNGKEYKCKVSNKALPAPIEKTISKAKGQPREPQVYTLPPSREEMTKNQVSLTCLVKGFYPSDIAVEWESNGQPENNYKTTPPVLDSDGSFFLYSKLTVDKSRWQQGNVFSCSVMHEALHNHYTQKSLSLSPGGGGGSGGGGSQVQLQESGPGLVKPSETLSLTCTVSGGSVSSGSYYWSWIRQPPGKGLEWIGYIYYSGSTNYNPSLKSRVTISVDTSKNQFSLKLSSVTAADTAVYYCARNPISIPAFDIWGQGTMVTVSSGGSGGSGGSGGSGGSGGSQPVLTQPPSVSVAPGKTARITCGGNNIGSKSVHWYQQKPGQAPVLVIYYDSDRPSGIPERFSGSNSGNTATLTISRVEAGDEADYYCQVWDTSSDHVLFGGGTKLTVL
light: SYVLTQPSSVSVAPGQTATISCGGHNIGSKNVHWYQQRPGQSPVLVIYQDNKRPSGIPERFSGSNSGNTATLTISGTQAMDEADYYCQVWDNYSVLFGGGTKLTVLGQPKAAPSVTLFPPSSEELQANKATLVCLISDFYPGAVTVAWKADSSPVKAGVETTTPSKQSNNKYAASSYLSLTPEQWKSHRSYSCQVTHEGSTVEKTVAPTECS

How the values were obtained:
[1] = molecular target: T2, biotinylated monomeric CD16A antigen (human, UniProt P08637 17-208, limits assumed, biotinylated (site not stated)); assay: ELISA, biotinylated monomeric CD16A titrated on coated construct
T2 construct: Soluble antigen; also called soluble CD16A antigen
Description: (§1) For the capturing approach, 96-well ELISA plates (Immuno Maxisorp, Nunc) were coated overnight at 4° C. with His-tagged human EGFR or BCMA extracellular domain at concentrations of 3.0 or 0.4 μg/mL, respectively. After blocking with 3% (w/v) skimmed milk powder dissolved in phosphate buffered saline (PBS), antigen coated plates were used for capturing of different multivalent bispecific engagers at concentrations of 3-5 μg/mL in PBS containing 0.3% (w/v) skimmed milk powder. After washing three times with 300 μL per well of PBS containing 0.1% (v/v) Tween 20, plates were incubated with serial dilutions of biotinylated dimeric or monomeric CD16A antigen in PBS containing 0.3% (w/v) skimmed milk powder for 1.5 h at room temperature. After washing, plates were incubated with the detection conjugate Streptavidin HRP, 1:10,000 diluted in PBS containing 0.3% (w/v) skimmed milk powder for 1 h followed by washing and incubation with tetramethylbenzidine substrate (Seramun) for 1-2 min. Reaction was stopped by addition of 0.5 M H₂SO₄ (100 μL/well). Absorbance was measured at 450 nm using a multiwell plate reader, plotted and EC₅₀ values were determined by fitting a nonlinear regression model to sigmoidal dose-response curves (four parameters logistic fit) using GraphPad Prism software.
(§2) Concentration dependent binding of antibody constructs to coated recombinant CD16A antigen, or of soluble monomeric or dimeric CD16 antigen variants to coated or target antigen captured antibody constructs was analyzed in ELISA. Half maximal binding concentrations (EC₅₀) were determined by fitting a nonlinear regression model to sigmoidal dose-response curves (four parameters logistic fit) using GraphPad Prism software.

[2] = molecular target: recombinant CD16A 158V fused to monomeric human Fc (human, UniProt P08637 17-208); assay: ELISA, construct titrated on coated CD16A 158V fused to monomeric human Fc
[3] = molecular target: T2, biotinylated monomeric CD16A antigen; assay: ELISA, biotinylated monomeric CD16A titrated on construct captured by coated His-tagged human BCMA extracellular domain
Description: as §1, §2

[4] = molecular target: T1, His-tagged human BCMA extracellular …; assay: ELISA, construct captured on coated His-tagged human BCMA extracellular domain
[5] = molecular target: T3, recombinant CD16A 158F fused to monomeric human Fc (human, UniProt P08637 17-208); assay: ELISA, construct titrated on coated CD16A 158F fused to monomeric human Fc
T3 construct: also called recombinant CD16 antigen variant; not shown: monomeric human Fc
Description: To assess binding of EGFR/CD16 or BCMA/CD16 antibodies to coated antigen in ELISA, 96-well ELISA plates (Immuno Maxisorp, Nunc) were coated overnight at 4° C. with recombinant CD16 antigen variants fused to monomeric human Fc at a concentration of 1.5 μg/mL in 100 mM carbonate-bicarbonate buffer. After blocking with 3% (w/v) skimmed milk powder dissolved in phosphate buffered saline (PBS) serial dilutions of bispecific antibody constructs were incubated on the antigen coated plates for 1.5 h at room temperature. […] After washing, plates were incubated with tetramethylbenzidine substrate (Seramun) for 1-2 min. Reaction was stopped by addition of 0.5 M H₂SO₄ (100 μL/well). Absorbance was measured at 450 nm using a multiwell plate reader, plotted and EC₅₀ values were determined by fitting a nonlinear regression model to sigmoidal dose-response curves (four parameters logistic fit) using GraphPad Prism software.
as §2

[6] = molecular target: T4, biotinylated dimeric CD16A antigen (human, UniProt P08637 17-208, limits assumed, biotinylated (site not stated)); assay: ELISA, biotinylated dimeric CD16A titrated on construct captured by coated His-tagged human BCMA extracellular domain
T4 construct: Soluble antigen; also called soluble CD16A antigen
Description: as §1, §2

[7] = molecular target: T4, biotinylated dimeric CD16A antigen; assay: ELISA, biotinylated dimeric CD16A titrated on coated construct
Description: as §1, §2

[8] = molecular target: T5, His-tagged human EGFR extracellular domain (human, UniProt P00533 25-645); assay: ELISA, construct captured on coated His-tagged human EGFR extracellular domain
T5 construct: extracellular domain; Coated at 3.0 ug/mL to capture the EGFR-targeting constructs; not shown: His tag

[9] = molecular target: T2, biotinylated monomeric CD16A antigen; assay: ELISA, biotinylated monomeric CD16A titrated on construct captured by coated His-tagged human EGFR extracellular domain
Description: as §1, §2

[10] = molecular target: T4, biotinylated dimeric CD16A antigen; assay: ELISA, biotinylated dimeric CD16A titrated on construct captured by coated His-tagged human EGFR extracellular domain
Description: as §1, §2

T4 sequence (P08637 17-208 limits assumed): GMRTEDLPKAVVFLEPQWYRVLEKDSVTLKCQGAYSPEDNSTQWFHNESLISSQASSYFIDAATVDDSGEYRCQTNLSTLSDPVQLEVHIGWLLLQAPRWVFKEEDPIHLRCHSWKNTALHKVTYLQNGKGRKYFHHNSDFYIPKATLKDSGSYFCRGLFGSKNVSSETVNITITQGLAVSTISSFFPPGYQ
T2 sequence (P08637 17-208 limits assumed): as above
Sequence of recombinant CD16A 158V fused to monomeric human Fc (P08637 17-208 F176V): as the sequence (P08637 17-208 limits assumed) above, with F160V counted along it
T3 sequence (P08637 17-208): as the sequence (P08637 17-208 limits assumed) above

Binder | EC50 [1] [nM] | EC50 [2] [nM] | EC50 [3] [nM] | binding result [4] | EC50 [5] [nM] | EC50 [6] [nM] | EC50 [7] [nM] | binding result [8] | EC50 [9] [nM] | EC50 [10] [nM]
B1 | 13.1 | 0.31 | 1.98 | binds | 0.54 | 0.74 | 2.31 | – | – | –
B2 | 2 | 0.16 | – | – | 0.18 | – | 0.89 | binds | 1.62 | 0.76
